Blank lines part the entries; values can stand above or below the molecule they belong to.
What was measured:
Assay in all cases: co-IP
CD7BB1 (human | canine) [1] = molecular target: CD7BB1 (human | canine) (UniProt P09564)
CD7BB1 (human | canine) [2] = molecular target: CD7BB1 (human | canine) (UniProt P09564); remark: listed apart in the source
GP2CAD1 (rat | canine) = molecular target: GP2CAD1 (rat | canine)

UniProt P09564, sequence (P09564 whole entry): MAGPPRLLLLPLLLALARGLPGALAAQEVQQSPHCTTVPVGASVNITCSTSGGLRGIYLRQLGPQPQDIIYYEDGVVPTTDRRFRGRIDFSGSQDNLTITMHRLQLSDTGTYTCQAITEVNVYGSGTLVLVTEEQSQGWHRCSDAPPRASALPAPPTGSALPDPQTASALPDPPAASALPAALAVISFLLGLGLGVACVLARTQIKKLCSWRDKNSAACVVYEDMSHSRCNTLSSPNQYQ

stoichiometry N (α-catenin per 5 CD7BB1) (CD7BB1 (human | canine) [1]): 0.8
Molecule: α-catenin (natural protein)

stoichiometry N (β-catenin per 5 CD7BB1) (CD7BB1 (human | canine) [2]): 1 | stoichiometry N (β-catenin per GP2CAD1) (GP2CAD1 (rat | canine)): 1
B1: β-catenin (natural protein)
chain: MATQADLMELDMAMEPDRKAAVSHWQQQSYLDSGIHSGATTTAPSLSGKGNPEEEDVDTTQVLYEWEQGFSQSFTQEQVADIDGQYAMTRAQRVRAAMFPETLDEGMQIPSTQFDAAHPTNVQRLAEPSQMLKHAVVNLINYQDDAELATRAIPELTKLLNDEDQVVVNKAAVMVHQLSKKEASRHAIMRSPQMVSAIVRTMQNTNDVETARCTAGTLHNLSHHREGLLAIFKSGGIPALVKMLGSPVDSVLFYAITTLHNLLLHQEGAKMAVRLAGGLQKMVALLNKTNVKFLAITTDCLQILAYGNQESKLIILASGGPQALVNIMRTYTYEKLLWTTSRVLKVLSVCSSNKPAIVEAGGMQALGLHLTDPSQRLVQNCLWTLRNLSDAATKQEGMEGLLGTLVQLLGSDDINVVTCAAGILSNLTCNNYKNKMMVCQVGGIEALVRTVLRAGDREDITEPAICALRHLTSRHQEAEMAQNAVRLHYGLPVVVKLLHPPSHWPLIKATVGLIRNLALCPANHAPLREQGAIPRLVQLLVRAHQDTQRRTSMGGTQQQFVEGVRMEEIVEGCTGALHILARDVHNRIVIRGLNTIPLFVQLLYSPIENIQRVAAGVLCELAQDKEAAEAIEAEGATAPLTELLHSRNEGVATYAAAVLFRMSEDKPQDYKKRLSVELTSSLFRTEPMAWNETADLGLDIGAQGEPLGYRQDDPSYRSFHSGGYGQDALGMDPMMEHEMGGHHPGADYPVDGLPDLGHAQDLMDGLPPGDSNQLAWFDTDL

Reference: paper PMC2132940
